Data: the RNAGym collection of RNA variant scans (doi:10.1073/pnas.2313332121)
This sample holds only a part of the variants without activity.

B1: TPR 5TU (parent)
chain: GGAUCUUCUCGAUCUAACAAAAAAGACAAAUCUGCCACAAAGCUUGAGAGCAUCUUCGGAUGCAGAGGCGGCAGCCUUCGGUGGCGCGAUAGCGCCAACGUUCUCAACUAUGACACGCAAAACGCGUGCUCCGUUGAAUGGAGUUUAUCAUG

Variants of: B1
Assay: polymerase ribozyme fitness, log enrichment relative to wild type (log ratio); higher = more active; in vitro selection for triplet polymerase activity
How it was run: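 Each subunit of a heterodimeric triplet polymerase ribozyme was mutagenized into a library by PCR, transcribed, and subjected to one round of in vitro selection, run in triplicate. Libraries were annealed with a biotinylated primer, the partner subunit and triplets, incubated frozen at −7 °C, and extended constructs were gel-excised, captured on streptavidin beads and recovered by RT-PCR. Input and output libraries were sequenced on Illumina, keeping genotypes with ≥10 input reads and ≥1 read per output. Fitness is log base 2 of genotype enrichment divided by wild-type enrichment, from inverse-variance-weighted replicate averages.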

Variant	polymerase ribozyme fitness (log ratio)
GGAUCUUCUCGAUCUAACAAAAAAGACAAAUCUGCCACAAAGCUUGAGAGCAUCUACGCAUGCAGAGGCGGCAGCCUUCGGUGGCGCGAUAGCGCCAACGUUCUCAACUAUGACACGCAAAACGCGUGCUCCGUUGAAUGGAGGUUAUCAUG [U56A G59C U144G]	2.23
GGAUCUUCUCGAUCUAACAAAAAAGACAAAUCUGCCACAAAGCUUGAGAGCAUCUACGGAUACAGAGGCGGCAGCUUUCGAUGGCGUGAUAGCGUCAACGUUCUCAACUAUGACACGCAAAACGCGUGCUCCGUUGAAUGGAGUUUAUCAUG [U56A G62A C76U G81A C87U C95U]	-1.49
GGAUCUUCUCGAUCUAACAAAAAAGACAAAUCUGCCACAAAGCUUGAGAGCAUCUACUGAUGCAGAGGCGGCAGCCUUCGGUGGCGCGAUAGCGCCCAAGUUCUCAACUAUGACACGCAAAACGCGUGCUCCGUUGAAUGGAGUUUAUCAUG [U56A G58U A97C C99A]	-2.52
GGAUCUUCUCGAUCUAACAAAAAAGACAAAUCUGCCACAAAGCUUGAGAGCAUCUACGAAUGCAGAGGCGGCAGCCUUCGGUGGCGCGAUAGCGCCAACGUUCUGAACUGUGACACGCAAAACGCGUGCUCCGUUGAAUGGAGUUUAUCCUG [U56A G59A C105G A110G A150C]	≤ -4.2
GGAUCUUCUCGAUCUAACAAAAAAGACAAAUCUGCCACAAAGCUUGAGAGCAUCUACCGAUGCAGAGGCGGCAGCCUUCGGUGGCGCGAUAGAGCCAACGUUCUCAACUAUGACACGCAAAACACGUGCUCCGUUGAAUGGAGUUUAUCAUG [U56A G58C C93A G124A]	-2.36
GGAUCUUCUCGAUCUAACAAAAAAGACAAAUCUGCCACAAAGCUUGAGAGCAUCUACUGAUGCAGAGGUGGCAGCCUUCGGUGGCGCGAUAGCGAAAACGUUCUCAACUAUGACACGUAAAACGCGUGCUCCGUUGAAUGGAGUUUAUCAUG [U56A G58U C69U C95A C96A C118U]	-2.19
GGAUCUUCUCGAUCUAACAAAAAAGACAAAUCUGCCACAAAGCUUGAGAGCAUCUACGAAUGCAGAGGCGGCAGCCUUCGGUGGCGCGAUAGCGCCAACGUUCUCAACUAUGCCACGCAAAACGCGUGCUCCGUUGAAUGGAGUUUAUCAUU [U56A G59A A113C G152U]	≤ -4.2
GGAUCUUCUCGAUCUAACAAAAAAGACAAAUCUGCCACAAAGCUUGAGAGCAUCUACGGAUGCAAAGGCGGCAGCCUUCGGUGGCGCGAUAGCCCCAACGUUCUCAACUAUGACACGCAAAACGCGUGCUCCGUUGAAUGGAGUUUAUCUUG [U56A G65A G94C A150U]	-1.57
GGAUCUUCUCGAUCUAACAAAAAAGACAAAUCUGCCACAAAGCUUGAGAGCAUCUACGGAUGCAGAGGCGGCAGCCUUCGGUGGCGCGAUAGCGCAAACGUUUUCAACUAUGACACGCAAAACGCGUGCUCCGUUGAAUGGAGUUUAUCAUG [U56A C96A C103U]	0.293
GGAUCUUCUCGAUCUAACAAAAAAGACAAAUCUGCCACAAAGCUUGAGAGCAUCUACAGAUGCAGAGGCGGCAGCCUUCGGUGGCGGGAUAGCGCCAACGUUCUCAACUAUGACACGCAAAACGCGUGCUCCUUUGAAUGGAGUUUAUCAUG [U56A G58A C87G G133U]	≤ -4.2
GGAUCUUCUCGAUCUAACAAAAAAGACAAAUCUGCCACAAAGCUUGAGAGCAUCUACAGAUGCAGAGGCGGCAGCUUUCGGUGGCGCGAUAGCGCCAACGUUCUCAACUAUGACACGCAAAAUGGGUGCUCCGUUGAAUGGAAUUUAUCAUG [U56A G58A C76U C123U C125G G143A]	0.457
GGAUCUUCUCGAUCUAACAAAAAAGACAAAUCUGCCACAAAGCUUGAGAGCAUCUACAGAUGCAGAGGCGGCAGCCUUCGGUGGCGCGCUAGCGGCAACGUUCUCAACUAUGACACGCAAACCCCGUGCUCCGUUGAAUGCAGUUUAUCAUG [U56A G58A A89C C95G A122C G124C G141C]	-1.54
GGAUCUUCUCGAUCUAACAAAAAAGACAAAUCUGCCACAAAGCUUGAGAGCAUCUACGAAUGCAGAGGCGGCAGCCUUCGGUGGCGCGAUAGCGCCUACGUUCUCAACUAUGACACGCAAAACGCGUGCUCCGUUGAAUGGAGUUUAUUAUG [U56A G59A A97U C149U]	-1.48
GGAUCUUCUCGAUCUAACAAAAAAGACAAAUCUGCCACAAAGCUUGAGAGCAUCUACUGAUGCAGAGGCGGCAGCCUUCGGUGGCGCGAUAGCGCCAACGUUCUCAACUAUGACGCGCAAAACGCGUGCUCCGUUGAAUGGAGUUUAUCAUG [U56A G58U A115G]	-0.802
GGAUCUUCUCGAUCUAACAAAAAAGACAAAUCUGCCACAAAGCUUGAGAGCAUCUACGGAUGCAGAGGCGGCAGCCUUCGGUGGCGCGAUAGCGCUAACGUUCUCAACUAUGACACGCAAAACGCGUGCUCCAUUGAAUGGAGUUUAUCAUG [U56A C96U G133A]	≤ -4.2
GGAUCUUCUCGAUCUAACAAAAAAGACAAAUCUGCCACAAAGCUUGAGAGCAUCUACGGAUGCAGAGGCGGCAGCCUUCGGUGGCGCGAUAGCGCUAACGUUCUCAACUAUGACACGCAAAACGCGUGCUCCGUUGAUUGGAGUUUAUCAUG [U56A C96U A138U]	-4.06
GGAUCUUCUCGAUCUAACAAAAAAGACAAAUCUGCCACAAAGCUUGAGAGCAUCUACGGAUGCAGAGGCGGCAGCCUUCGGUGGCGCGAUAGCGCCAACGUUGUCAACUAUGACACGCAAAACGCGUGCUCCGUUGAAUGGAGUUUAUCAUG [U56A C103G]	-0.914
GGAUCUUCUCGAUCUAACAAAAAAGACAAAUCUGCCACAAAGCUUGAGAGCAUCUACGGAUGCAGAGGCGGCAGCCUUCGGUGGCGCGAUAGCGCCAACGUUUUCAACUAUGACACGCAAAACGCGUGCUCCGUUGAAUGGAGUUUAUCAUG [U56A C103U]	-0.0268
GGAUCUUCUCGAUCUAACAAAAAAGACAAAUCUGCCACAAAGCUUGAGAGCAUCUACGGAUGCAGACGCGGCAGCCUUCGGUGGCGCGAUAGUGCCAACGUUAUCAACUAUGACACGCAAAACGCGUGCACCGUUGAAUGGAGUUUACCAUG [U56A G67C C93U C103A U130A U148C]	≤ -4.2

Variant	polymerase ribozyme fitness (log ratio)
GGAUCUUCUCGAUCUAACAAAAAAGACAAAUCUGCCACAAAGCUUGAGAGCAUCUACGGAUGCAGAGGCGGCAGCCUUCGGUGGCGCGAUAGCGCCAACGUUAUCAACUGUGACACGCAAAACGCGUGCUCCGUUGAAUGGAGGUUAUCAUG [U56A C103A A110G U144G]	-3.91
GGAUCUUCUCGAUCUAACAAAAAAGACAAAUCUGCCACAAAGCUUGAGAGCAUCUACGGAUGCAGAGGCGGCAGCCUUCGGUGGCGCGAUAGCGCCAACGUUCUCAACUAUGACACGCAAAACGGGUGCUCCGUUGAAUGGAGUUUAUCAUG [U56A C125G]	-1.56
GGAUCUUCUCGAUCUAACAAAAAAGACAAAUCUGCCACAAAGCUUGAGAGCAUCUACGGAUGCAGAGGCGGCAGCCUUCGGUGGCGCGAUAGCGCGAACGUUCUCAACUAUGACACGCAAAACGCGUGCUCCGUUGAAGGGAGUUUAUCAUG [U56A C96G U139G]	-0.96
GGAUCUUCUCGAUCUAACAAAAAAGACAAAUCUGCCACAAAGCUUGAGAGCAUCUACGGAUGCAGAGGCGGCAGCCUUCGGUGGCGCGAUAGCGCCAACGUUCUCAACUAUGACACGCAAAACGCGUGCUCCGUUGAAUGGAGUUUAUUAUG [U56A C149U]	-0.627
GGAUCUUCUCGAUCUAACAAAAAAGACAAAUCUGCCACAAAGCUUGAGAGCAUCUACCGAUGCAGAGGCGGCAGCCUUCGGUGGCGCGAUAACGCCAACGUUCUCGACUAUGACACGCAAAACGCGUGCUCCGUUGAAUGGAGUUUAUCAUG [U56A G58C G92A A106G]	-3.51
GGAUCUUCUCGAUCUAACAAAAAAGACAAAUCUGCCACAAAGCUUGAGAGCAUCUACCGAUGCAGAGGCGGCAGCCUUCGGUGGUGCGAUAGCGCCAACGUUCUCAACUAUGACACGCAAAACGCGUGCUCCGUUGAAUGGAGUUUAUCAUG [U56A G58C C85U]	-0.365
GGAUCUUCUCGAUCUAACAAAAAAGACAAAUCUGCCACAAAGCUUGAGAGCAUCUACGGAUGCAGAGGCGGCAGCCUUCGGUGGCGCGAUAGCGCUAACGUUCUCAACUAUGACACGCAAAACGCGUGCUCCGUUGAAUGGAGUUUAUCAUG [U56A C96U]	-0.499
GGAUCUUCUCGAUCUAACAAAAAAGACAAAUCUGCCACAAAGCUUGAGAGCAUCUACGGAUGCAGAGGCGGCAGCCUUCGGUGGCGCGAUAGCGCCAACGUUCUCAACUAUGACACGUAAAAGGCGUGCUCCGUUGAAUGGAGCUUAUCAUG [U56A C118U C123G U144C]	-0.722
GGAUCUUCUCGAUCUAACAAAAAAGACAAAUCUGCCACAAAGCUUGAGAGCAUCUACGGAUGCAGAGGCGGCAGCCUUCGGUGGCGCGAUAGCGCCAACGUUCUCAACUAUGACACGCAAAACGUGUGCUCCGUUGAAUGGCGUUUAUCAUG [U56A C125U A142C]	-3.74
GGAUCUUCUCGAUCUAACAAAAAAGACAAAUCUGCCACAAAGCUUGAGAGCAUCUACCGAUGCAGAGGCGGCAGCCUUCGGUGGCGCGAUAGUGCCAACGUUCUCAACUAUGACACGCAAAACGCGGGCUCCGUUGAAUGGAGUAUAUCAUG [U56A G58C C93U U127G U145A]	-3.83
GGAUCUUCUCGAUCUAACAAAAAAGACAAAUCUGCCACAAAGCUUGAGAGCAUCUACGGAUGCAGAGGCGGCAGCCUUCGGUGGCGCGAUAGCGCUAACGUUCUCAACUAUGACACGCAAAACGCGUGCUCCGUUGAAUGGAGUAUAUCAUA [U56A C96U U145A G152A]	-2
GGAUCUUCUCGAUCUAACAAAAAAGACAAAUCUGCCACAAAGCUUGAGAGCAUCUACAGAUGCAGAGGCGGCAGCCUUCGGUGGCGCCAUAGCGCCAACGUUCUCAACUAUGACACGCAAAACGCGUGCUCCGUUGAAUGGAGUUUAUCAUG [U56A G58A G88C]	-3.84
GGAUCUUCUCGAUCUAACAAAAAAGACAAAUCUGCCACAAAGCUUGAGAGCAUCUACGGAUGCAGAGGCCGCAGCCUUCGGUGGCGCGAUAGCGCCAACGUUCUCAACUAUGACACGCAAAACGCGUGCUCCGUUGAAUGGAGUUUAUCAUG [U56A G70C]	-3.24
GGAUCUUCUCGAUCUAACAAAAAAGACAAAUCUGCCACAAAGCUUGAGAGCAUCUACCGAUGCAGAGGCGGCAGCCUUCGGUGGCGCGAUAUAGCCAACGUUCUCAACUAUGACACGAAAAACGCGUGCUCCGUUGAAUGGAGUUUAUCAUG [U56A G58C G92U C93A C118A]	-3.82
GGAUCUUCUCGAUCUAACAAAAAAGACAAAUCUGCCACAAAGCUUGAGAGCAUCUACGGAUGCAGAGGCAGCAGCCUUCGGUGGUGCGAUAGCGCCGACGUUCUCAACUAUGACACGCAAAACGCGUGCUCCCUUGAAUGGAGUUUAUCAUG [U56A G70A C85U A97G G133C]	≤ -4.2
GGAUCUUCUCGAUCUAACAAAAAAGACAAAUCUGCCACAAAGCUUGAGAGCAUCUACGAAUGCAGAGGCGGCAGCCUUCGGUGGCGCGAUAGCGCUAACGUUCUCAACUAUGACACGCAAAACGCGUGCUCCGUUGAAUGGAGUUUAUCAUG [U56A G59A C96U]	0.392
GGAUCUUCUCGAUCUAACAAAAAAGACAAAUCUGCCACAAAGCUUGAGAGCAUCUACGGAUGCAGAGGCGGCAGCCUUCGGUGGCGCGAUAGCGCCAAUGUUCUCAACUAUGACACGCAAAACGCGUGCUCCGUUGAAUGGAGUUUAUCAUG [U56A C99U]	-0.614
GGAUCUUCUCGAUCUAACAAAAAAGACAAAUCUGCCACAAAGCUUGAGAGCAUCUACGGAUGCAGAGGCGGCAGCCUUCGGUGGCGCGAUAGCGCUAACGUUCUCAACUAUGACAUGCAAAACGCGUGCUCCGUUGAAUGGAAUUUAUCAUG [U56A C96U C116U G143A]	-3.36
GGAUCUUCUCGAUCUAACAAAAAAGACAAAUCUGCCACAAAGCUUGAGAGCAUCUACAGAUGCAGAGGCGGUAGCCUUCGGUGGCGUGAUAGCGCCAACGUUCUCAACGAUGACACGCAAAACGCGUGCUCCGUUAAAUGGAGCUUAUCAUG [U56A G58A C72U C87U U109G G136A U144C]	-4.13
